# Legend:
# [1] = molecular target: JR-CSF gp120 N276A (HIV-1) (UniProt P20871); assay: cell-based or functional assay
# [2] = molecular target: ΔRSC3; assay: method not given
# [3] = molecular target: JR-CSF gp120 D279A (HIV-1) (UniProt P20871); assay: cell-based or functional assay
substance,measurement,setting,value
VRC01 (antibody),"neutralization potency, JR-CSF pseudovirus",[1],4 fold
VRC-PG04b (antibody),fold less binding than to RSC3,[2],> 100 fold
VRC-PG-04 (antibody),"neutralization potency compared to wildtype, JRCSF pseudovirus entry",[3],< 10%

# Reference: patent publication US20160289305A1
